Reference: US20090099029A1, “Methods and substrates for conducting assays” (Invitrogen Corporation, priority 2005, published 2009)

system: kinases of Table 6 on Myelin Basic Protein (MBP); experiment: Kinase assay using MBP substrate, ProQ Diamond stain (Table 6); format: biochemical; settings: kinase printed on MBP-coated slide; 20 uM ATP, 30° C.; ProQ Diamond Microarray Stain; graded Strong/Weak/Negative
Procedure, shortened: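 Reactions ran at 30° C. with 20 uM ATP, 4 mM MgCl2 and 5% DMSO in HEPES pH 7.5, inhibitor added or omitted. Kinases had been arrayed onto slide-bound dephosphorylated bovine MBP; phospho-signal read after ProQ Diamond staining.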

Molecule	MBP Kinase Activity
TTK (protein, left off: a dimerising Fc or GST) MESEDLSGRELTIDSIMNKVRDIKNKFKNEDLTDELSLNKISADTTDNSGTVNQIMMMANNPEDWLSLLLKLEKNSVPLSDALLNKLIGRYSQAIEALPPDKYGQNESFARIQVRFAELKAIQEPDDARDYFQMARANCKKFAFVHISFAQFELSQGNVKKSKQLLQKAVERGAVPLEMLEIALRNLNLQKKQLLSEEEKKNLSASTVLTAQESFSGSLGHLQNRNNSCDSRGQTTKARFLYGENMPPQDAEIGYRNSLRQTNKTKQSCPFGRVPVNLLNSPDCDVKTDDSVVPCFMKRQTSRSECRDLVVPGSKPSGNDSCELRNLKSVQNSHFKEPLVSDEKSSELIITDSITLKNKTESSLLAKLEETKEYQEPEVPESNQKQWQSKRKSECINQNPAASSNHWQIPELARKVNTEQKHTTFEQPVFSVSKQSPPISTSKWFDPKSICKTPSSNTLDDYMSCFRTPVVKNDFPPACQLSTPYGQPACFQQQQHQILATPLQNLQVLASSSANECISVKGRIYSILKQIGSGGSSKVFQVLNEKKQIYAIKYVNLEEADNQTLDSYRNEIAYLNKLQQHSDKIIRLYDYEITDQYIYMVMECGNIDLNSWLKKKKSIDPWERKSYWKNMLEAVHTIHQHGIVHSDLKPANFLIVDGMLKLIDFGIANQMQPDTTSVVKDSQVGTVNYMPPEAIKDMSSSRENGKSKSKISPKSDVWSLGCILYYMTYGKTPFQQIINQISKLHAIIDPNHEIEFPDIPEKDLQDVLKCCLKRDPKQRISIPELLAHPYVQIQTHPVNQMAKGTTEEMKYVLGQLVGLNSPNSILKAAKTLYEHYSGGESHNSSSSKTFEKKRGKK	Negative
TAOK3(JIK) (protein, left off: a dimerising Fc or GST) MRKGVLKDPEIADLFYKDDPEELFIGLHEIGHGSFGAVYFATNAHTSEVVAIKKMSYSGKQTHEKWQDILKEVKFLRQLKHPNTIEYKGCYLKEHTAWLVMEYCLGSASDLLEVHKKPLQEVEIAAITHGALHGLAYLHSHALIHRDIKAGNILLTEPGQVKLADFGSASMASPANSFVGTPYWMAPEVILAMDEGQYDGKVDIWSLGITCIELAERKPPLFNMNAMSALYHIAQNDSPTLQSNEWTDSFRRFVDYCLQKIPQERPTSAELLRHDFVRRDRPLRVLIDLIQRTKDAVRELDNLQYRKMKKILFQETRNGPLNESQEDEEDSEHGTSLNREMDSLGSNHSIPSMSVSTGSQSSSVNSMQEVMDESSSELVMMHDDESTINSSSSVVHKKDHVFIRDEAGHGDPRPEPRPTQSVQSQALHYRNRERFATIKSASLVTRQIHEHEQENELREQMSGYKRMRRQHQKQLIALENKLKAEMDEHRLKLQKEVETHANNSSIELEKLAKKQVAIIEKEAKVAAADEKKFQQQILAQQKKDLTTFLESQKKQYKICKEKIKEEMNEDHSTPKKEKQERISKHKENLQHTQAEEEAHLLTQQRLYYDKNCRFFKRKIMIKRHEVEQQNIREELNKKRTQKEMEHAMLIRHDESTRELEYRQLHTLQKLRMDLIRLQHQTELENQLEYNKRRERELHRKHVMELRQQPKNLKAMEMQIKKQFQDTCKVQTKQYKALKNHQLEVTPKNEHKTILKTLKDEQTRKLAILAEQYEQSINEMMASQALRLDEAQEAECQALRLQLQQEMELLNAYQSKIKMQTEAQHERELQKLEQRVSLRRAHLEQKIEEELAALQKERSERIKNLLERQEREIETFDMESLRMGFGNLVTLDFPKEDYR	Strong
STK22D(TSSK1) (protein, left off: small tags and cut ends) MDDAAVLKRRGYLLGINLGEGSYAKVKSAYSERLKFNVAIKIIDRKKAPADFLEKFLPREIEILAMLNHCSIIKTYEIFETSHGKVYIVMELAVQGDLLELIKTRGALHEDEARKKFHQLSLAIKYCHDLDVVHRDLKCDNLLLDKDFNIKLSDFSFSKRCLRDDSGRMALSKTFCGSPAYAAPEVLQGIPYQPKVYDIWSLGVILYIMVCGSMPYDDSNIKKMLRIQKEHRVNFPRSKHLTGECKDLIYHMLQPDVNRRLHIDEILSHCWMQPKARGSPSVAINKEGESSRGTEPLWTPEPGSDKKSATKLEPEGEAQPQAQPETKPEGTAMQMSRQSEILGFPSKPSTMETEEGPPQQPPETRAQ	Strong
FGFR3 (protein, left off: small tags and cut ends) RLRSPPKKGLGSPTVHKISRFPLKRQVSLESNASMSSNTPLVRIARLSSGEGPTLANVSELELPADPKWELSRARLTLGKPLGEGCFGQVVMAEAIGIDKDRAAKPVTVAVKMLKDDATDKDLSDLVSEMEMMKMIGKHKNIINLLGACTQGGPLYVLVEYAAKGNLREFLRARRPPGLDYSFDTCKPPEEQLTFKDLVSCAYQVARGMEYLASQKCIHRDLAARNVLVTEDNVMKIADFGLARDVHNLDYYKKTTNGRLPVKWMAPEALFDRVYTHQSDVWSFGVLLWEIFTLGGSPYPGIPVEELFKLLKEGHRMDKPANCTHDLYMIMRECWHAAPSQRPTFKQLVEDLDRVLTVTSTDEYLDLSAPFEQYSPGGQDTPSSSSSGDDSVFAHDLLPPAPPSSGGSRT	Strong
STK22B(TSSK2) (protein, left off: small tags and cut ends) MDDATVLRKKGYIVGINLGKGSYAKVKSAYSERLKFNVAVKIIDRKKTPTDFVERFLPREMDILATVNHGSIIKTYEIFETSDGRIYIIMELGVQGDLLEFIKCQGALHEDVARKMFRQLSSAVKYCHDLDIVHRDLKCENLLLDKDFNIKLSDFGFSKRCLRDSNGRIILSKTFCGSAAYAAPEVLQSIPYQPKVYDIWSLGVILYIMVCGSMPYDDSDIRKMLRIQKEHRVDFPRSKNLTCECKDLIYRMLQPDVSQRLHIDEILSHSWLQPPKPKATSSASFKREGEGKYRAECKLDTKTGLRPDHRPDHKLGAKTQHRLLVVPENENRMEDRLAETSRAKDHHISGAEVGKAST	Negative
SGKL(SGK3) (protein, UniProt Q96BR1 1-496, looked up) Serine/threonine-protein …: MQRDHTMDYKESCPSVSIPSSDEHREKKKRFTVYKVLVSVGRSEWFVFRRYAEFDKLYNTLKKQFPAMALKIPAKRIFGDNFDPDFIKQRRAGLNEFIQNLVRYPELYNHPDVRAFLQMDSPKHQSDPSEDEDERSSQKLHSTSQNINLGPSGNPHAKPTDFDFLKVIGKGSFGKVLLAKRKLDGKFYAVKVLQKKIVLNRKEQKHIMAERNVLLKNVKHPFLVGLHYSFQTTEKLYFVLDFVNGGELFFHLQRERSFPEHRARFYAAEIASALGYLHSIKIVYRDLKPENILLDSVGHVVLTDFGLCKEGIAISDTTTTFCGTPEYLAPEVIRKQPYDNTVDWWCLGAVLYEMLYGLPPFYCRDVAEMYDNILHKPLSLRPGVSLTAWSILEELLEKDRQNRLGAKEDFLEIQNHPFFESLSWADLVQKKIPPPFNPNVAGPDDIRNFDTAFTEETVPYSVCVSSDYSIVNASVLEADDAFVGFSYAPPSEDLFL	Weak
TAOK2(TAO1) (protein, left off: a dimerising Fc or GST) MPAGGRAGSLKDPDVAELFFKDDPEKLFSDLREIGHGSFGAVYFARDVRNSEVVAIKKMSYSGKQSNEKWQDIIKEVRFLQKLRHPNTIQYRGCYLREHTAWLVMEYCLGSASDLLEVHKKPLQEVEIAAVTHGALQGLAYLHSHNMIHRDVKAGNILLSEPGLVKLGDFGSASIMAPANSFVGTPYWMAPEVILAMDEGQYDGKVDVWSLGITCIELAERKPPLFNMNAMSALYHIAQNESPVLQSGHWSEYFRNFVDSCLQKIPQDRPTSEVLLKHRFVLRERPPTVIMDLIQRTKDAVRELDNLQYRKMKK	Strong
SRPK2 (protein, left off: a dimerising Fc or GST) MSSRKVLAIQARKRRPKREKHPKKPEPQQKAPLVPPPPPPPPPPPPPLPDPTPPEPEEEILGSDDEEQEDPADYCKGGYHPVKIGDLFNGRYHVIRKLGWGHFSTVWLCWDMQGKRFVAMKVVKSAQHYTETALDEIKLLKCVRESDPSDPNKDMVVQLIDDFKISGMNGIHVCMVFEVLGHHLLKWIIKSNYQGLPVRCVKSIIRQVLQGLDYLHSKCKIIHTDIKPENILMCVDDAYVRRMAAEATEWQKAGAPPPSGSAVSTAPQQKPIGKISKNKKKKLKKKQKRQAELLEKRLQEIEELEREAERKIIEENITSAAPSNDQDGEYCPEVKLKTTGLEEAAEAETAKDNGEAEDQEEKEDAEKENIEKDEDDVDQELANIDPTWIESPKTNGHIENGPFSLEQQLDDEDDDEEDCPNPEEYNLDEPNAESDYTYSSSYEQFNGELPNGRHKIPESQFPEFSTSLFSGSLEPVACGSVLSEGSPLTEQEESSPSHDRSRTVSASSTGDLPKAKTRAADLLVNPLDPRNADKIRVKIADLGNACWVHKHFTEDIQTRQYRSIEVLIGAGYSTPADIWSTACMAFELATGDYLFEPHSGEDYSRDEDHIAHIIELLGSIPRHFALSGKYSREFFNRRGELRHITKLKPWSLFDVLVEKYGWPHEDAAQFTDFLIPMLEMVPEKRASAGECLRHPWLNS	Strong
FGFR2 (protein, left off: small tags and cut ends) RMKNTTKKPDFSSQPAVHKLTKRIPLRRQVTVSAESSSSMNSNTPLVRITTRLSSTADTPMLAGVSEYELPEDPKWEFPRDKLTLGKPLGEGCFGQVVMAEAVGIDKDKPKEAVTVAVKMLKDDATEKDLSDLVSEMEMMKMIGKHKNIINLLGACTQDGPLYVIVEYASKGNLREYLRARRPPGMEYSYDINRVPEEQMTFKDLVSCTYQLARGMEYLASQKCIHRDLAARNVLVTENNVMKIADFGLARDINNIDYYKKTTNGRLPVKWMAPEALFDRVYTHQSDVWSFGVLMWEIFTLGGSPYPGIPVEELFKLLKEGHRMDKPANCTNELYMMMRDCWHAVPSQRPTFKQLVEDLDRILTLTTNEEYLDLSQPLEQYSPSYPDTRSSCSSGDDSVFSPDPMPYEPCLPQYPHINGSVKT	Strong
STK17A(DRAK1) (protein, left off: a dimerising Fc or GST) MIPLEKPGSGGSSPGATSGSGRAGRGLSGPCRPPPPPQARGLLTEIRAVVRTEPFQDGYSLCPGRELGRGKFAVVRKCIKKDSGKEFAAKFMRKRRKGQDCRMEIIHEIAVLELAQDNPWVINLHEVYETASEMILVLEYAAGGEIFDQCVADREEAFKEKDVQRLMRQILEGVHFLHTRDVVHLDLKPQNILLTSESPLGDIKIVDFGLSRILKNSEELREIMGTPEYVAPEILSYDPISMATDMWSIGVLTYVMLTGISPFLGNDKQETFLNISQMNLSYSEEEFDVLSESAVDFIRTLLVKKPEDRATAEECLKHPWLTQSSIQEPSFRMEKALEEANALQEGHSVPEINSDTDKSETKESIVTEELIVVTSYTLGQCRQSEKEKMEQKAISKRFKFEEPLLQEIPGEFIY	Negative
